Experimental data taken from patent US11034736B2, “Anti-viral cnidarins” (priority 2014, dated 2021).
“And” between values parts separate entries of the source, which are not always exact repeats. Identical values can stand only once. Like-named read-outs stand apart in the source and are kept apart here.

Tests used:
HIV-1US/92/727 = experiment: Anti-HIV evaluation in PHA-stimulated human PBMCs, reverse transcriptase in supernatant; format: cell-based; conditions: HIV-1US/92/727, human PBMCs, 7 days
Experimental: (§1) The cultures were incubated for 7 days at 37° C./5% CO2. Efficacy of the compounds was evaluated by measuring the amount of reverse transcriptase in the culture supernatant and toxicity was evaluated using XTT to measure cell viability. AZT was evaluated in parallel as an assay control.

in vitro = conditions: human
Experimental: as §1

HIV-1RF = experiment: XTT-tetrazolium anti-HIV assay, HIV-1RF in CEM-SS cells; format: cell-based; conditions: for EC50: HIV-1RF, T-tropic laboratory strain, CEM-SS cells, XTT, 6 days
Experimental: (§2) A 2,3-bis-[2-methoxy-4-nitro-5-sulfophenyl]-2H-tetrazolium-5-carboxanilide inner salt (XTT)-tetrazolium-based assay was used to determine the anti-HIV activity of CNID-1, -2 and -3 against a T-tropic laboratory strain (HIV-1RF) in T-lymphoblastic CEM-SS cells as described previously (Gulakowski et al., J. Virol. Methods, 33: 87-100 (1991)). CEM-SS cells were maintained in RPMI 1640 media without phenol red and supplemented with 10% fetal bovine serum (BioWhittaker), 2 mM L-glutamine (BioWhittaker), and 50 μg/ml gentamicin (BioWhittaker) (complete medium). Exponentially growing cells were washed and resuspended in complete medium, and a 50 μl aliquot containing 5×10^3 cells was added to individual wells of a 96-well round-bottom microtiter plate containing serial dilutions of the respective cnidarin protein in a volume of 100 μl of medium. Stock supernatants of HIV-1RF were diluted in complete medium to yield sufficient cytopathicity (80-90% cell kill in 6 days), and a 50 μl aliquot was added to appropriate wells. Plates were incubated for 6 days at 37° C. and then stained for cellular viability using XTT.
(§3) The HIV reverse transcriptase inhibitor 3′-Azido-3′-deoxythymidine (AZT) was used as a positive control. All assays were carried out in triplicate for all viruses and cells.

HIV-1IIIB gp120 [1] = molecular target: T1, HIV-1IIIB gp120 (Human immunodeficiency virus type 1 group M subtype B, UniProt P04578); conditions: ELISA, 100 ng/well gp120
Experimental: High protein binding Greiner 96-well plates (VWR, Bridgeport, N.J.) were coated with 1 pmol/well of recombinant HIV-1IIIIB gp120 (Immuno Diagnostics, Woburn, Mass.) or recombinant HIV-1HXB2 gp41 (Vybion Inc., Ithaca, N.Y.) at 4° C. overnight. The wells were emptied and then blocked with 200 μl/well of 3% non-fat dry milk (Bio-Rad, Hercules, Calif.) blocking solution for 2 hrs. A control plate was incubated with blocking solution only. After washing three times with PBST, 0.5-log10 serial dilutions of rCNID-1-Trx were added to triplicate wells of gp120−, gp41− and the blocking solution control plate, and the plates were incubated for 2 hrs. The plates were washed with PBST and 100 W/well of a 1:250 dilution of polyclonal rabbit anti-CNID-1 antibody was added and allowed to incubate for 1 hr, followed by three washes with PBST. Goat anti-rabbit (H+L), peroxidase conjugated secondary antibody (Thermo Fisher Scientific Inc., Rockford, Ill.) was added to each well (100 μl/well of a 1:1000 dilution) and further incubated for 1 hr, followed by three washes with PBST. The TMB 2-component Microwell peroxidase substrate kit (KPL Inc., Gaithersburg, Md.) was used for peroxidase detection: 100 W/well, incubation for 5-10 min and the reaction was stopped by addition of 0.5M HCl (100 W/well) before reading the absorbance at 450 nm.
Briefly, 100 ng/wells of glycosylated recombinant HIV-1IIIB gp120 (Immuno Diagnostics, Woburn, Mass.) or nonglycosylated HIV-1 gp120 (MyBioSource LLC, San Diego, Calif.) was added to the wells of two 96-well plates, and incubated overnight at 4° C. The plates were washed and blocked as previously described. Serial dilutions of rCNID-1-Trx were added (100 W/well); incubation done for 2 hrs. The plates were then washed and visualized using anti-CNID-1 polyclonal antibodies as above.

HIV-1IIIB gp120 [2] = molecular target: T1, HIV-1IIIB gp120
Experimental: Recombinant CNID-1 (in fusion with Trx and rEK cleaved forms of rCNID-1) and recombinant HIV-1IIIIB gp120 (Immuno Diagnostics, Woburn, Mass.) controls were resolved on 4-12% Bis-Tris pre-cast SDS-PAGE gels (Life Technologies, Grand Island, N.Y.) and blotted onto polyvinylidine difluoride membranes. Membranes were blocked with 3% BSA for 2 hours. For CNID-1 detection, the membrane was incubated overnight with rabbit anti-CNID-1 (1:2000 dilution). For detection of rCNID-1 binding to gp120, membranes were incubated overnight with 1 μg/ml rgp120, then washed thrice with PBST before being incubated with polyclonal rabbit anti-gp120 (1:1000 dilution) overnight. Membranes were washed three times with PBST and further incubated with goat anti-rabbit (H+L), peroxidase conjugated secondary antibody (Thermo Fisher Scientific Inc., Rockford, Ill.) at a 1:1000 dilution for 1 hr. After washing with PBST, signals were detected on Hyblot CL autoradiography film (Denville Scientific, Metuchen, N.J.) using the SignalFire ECL reagent system (Cell Signaling Technology Inc., Danvers, Mass.) according to the manufacturer's protocol.

CEM-SS cells = experiment: Direct toxicity to uninfected CEM-SS control cells (XTT); format: cell-based, human
Experimental: as §2, §3

Macrophage = experiment: Cell viability of monocyte/macrophage cultures (CellTiter formazan dye reduction); format: cell-based, human; conditions: macrophages
Excerpt: (§4) To test the anti-HIV activity of CNID1 against HIV primary isolates in fresh human cells, monocyte-tropic HIV-1 strain Ba-L was obtained from the NIAID AIDS Research and Reference Reagent Program (National Institutes of Health, Bethesda, Md.). The low passage HIV-1 pediatric isolate ROJO was derived as described previously (Buckheit et al., AIDS Res. Hum. Retroviruses, 10: 1497-1506 (1994)). Human peripheral blood mononuclear cells (PBMCs) and macrophages were isolated from hepatitis and HIV seronegative donors following Ficoll-Paque centrifugation as described elsewhere (Gartner & Popovic, Techniques in HIV Research, Aldovini, A. and Walker B., eds., pp. 59-63, Stockton Press, New York, 1990). Antiviral assays were carried out with 3-day-old phytohaemagglutinin/interleukin-2 stimulated PBMCs or 6-day-cultured monocyte/macrophages. […] HIV-1 replication in PBMC (ROJO) or monocyte macrophage (Ba-L) cultures were determined by measurement of reverse transcriptase activity (Buckheit et al., Antiviral Res., 21: 247-265 (1993)) in the supernatants or p24 antigen expression by ELISA (Coulter, Hialeah, Fla.), respectively. Cell viability by formazan dye reduction was determined in replicated cultures using the CellTiter reagent (Promega, Madison, Wis.). […]

HIV-1ROJO = experiment: HIV-1 ROJO replication in human PBMC cultures, supernatant reverse transcriptase activity; format: cell-based; conditions: T-tropic primary isolate
Excerpt: as §4

PBMC = experiment: Cell viability of PBMC cultures (CellTiter formazan dye reduction); format: cell-based, human
Excerpt: as §4

HIV-1IIIB [3] = experiment: Viral attachment assay, cell-associated p24 antigen in HeLa CD4 LTR β-gal cells; format: cell-based
Experimental: (§5) Attachment and fusion assays were performed in HeLa-CD4-LTR-β-galactosidase cell lines as described previously (Gartner & Popovic, (1990), supra) with the following modifications. Following the interaction of HIV-1IIIIIB with HeLa CD4 LTR β-gal cells, viral attachment to HeLa CD4 LTR β-gal cells was detected as cell-associated p24 antigen following a 1 hour adsorption of virus and vigorous washing for removal of unbound virus. Fusion of HIV-1IIIIB with HeLa CD4 LTR β-gal cells was detected by chemiluminescence using a single-step lysis and detection method (Tropix Gal-screen, Bedford, Mass.) and results reported as EC50 values. Chicago Sky Blue, a polysulfonic acid dye inhibitor of HIV attachment and fusion, was used as a positive control for all assays (Clanton et al., J. Acquired Immune Defic. Syndr., 5: 771-781 (1992)).

HIV-1IIIB [4] = experiment: Viral fusion assay, chemiluminescence in HeLa CD4 LTR β-gal cells; format: cell-based
Experimental: as §5

[5] = tested on: HeLa CD4 LTR β-galactosidase cells; experiment: Cytotoxicity in the attachment and fusion assays; format: cell-based
Experimental: as §3, §5

human PBMCs = experiment: Toxicity in PHA-stimulated human PBMCs, XTT cell viability; conditions: human PBMCs, XTT, 7 days
Experimental: as §1

**Q.** For `Cc1cn([C@H]2C[C@H](N=[N+]=[N-])[C@@H](CO)O2)c(=O)[nH]c1=O` [AZT, 3′-Azido-3′-deoxythymidine, reference compound], which EC50 (HIV-1US/92/727; Human immunodeficiency virus 1, PBMC, 168 h, read-out: EC50) is on record?
**A.** 1.88 nM

**Q.** What about the CC50 at 7 days (in vitro) of the same molecule?
**A.** > 1000 nM

B1: rCNID-1-Trx: thioredoxin-hexahistidine-CNID-1 fusion protein expressed in E. coli (protein)
chain: GRATLGQLKTSTIPPVTFDVPFDGANIPQDVRFTIATVNGGKGALYNAELGESAGHTIVLESDGDHPIPGTFDPKSGRGLDYLPRGLVLFSSHNYVGNMKMYTEPDSDITADFPPGTPFGVSSAITGEGSAFQLNTGIDHTGEFEIIPPNTKRNLAGVFDNEIRSVSPTGGK
modifications: left off: large carriers; small tags and cut ends
notes: thioredoxin-hexahistidine-CNID-1 fusion protein expressed in E. coli
**Q.** For B1, which “Activity after extraction and refolding from inclusion bodies” value (HIV-1RF; CaCl2 presence) is on record?
**A.** low-to-partially active

**Q.** And the “Activity after extraction and refolding from inclusion bodies” value (HIV-1RF; absence of CaCl2)?
**A.** inactive

**Q.** What about the “Binding to gp120” value (HIV-1IIIB gp120 [1]) of the same molecule?
**A.** binds to HIV-1 glycoproteins, gp120

**Q.** And the “Binding to gp120 by immunoblot” value (HIV-1IIIB gp120 [2])?
**A.** specific binding

B2: rCNID-1 truncated forms: truncated forms of rCNID-1 (~14-16 kDa) from enterokinase digestion of rCNID-1-Trx (protein)
chain: GRATLGQLKTSTIPPVTFDVPFDGANIPQDVRFTIATVNGGKGALYNAELGESAGHTIVLESDGDHPIPGTFDPKSGRGLDYLPRGLVLFSSHNYVGNMKMYTEPDSDITADFPPGTPFGVSSAITGEGSAFQLNTGIDHTGEFEIIPPNTKRNLAGVFDNEIRSVSPTGGK
**Q.** Which results are given for B2?
**A.** EC50 (HIV-1RF): 45 to 150 nM; Binding to gp120 by immunoblot (HIV-1IIIB gp120 [2]): specific binding

B3: CNID-3: HIV-inhibitory protein from soft coral Synthecium sp.; 170 amino acids, 17,963 Da, SEQ ID NO: 3 (protein)
chain: GKSAYPGQITSDVPFVTFDVPFDGVNIPQDVRFTIATVNGGKLALYNAKLGDPANNTIVLESDGDHPIPGTFDDPKGRGLDYAFGGLLLFSFHNFVGHKKLYREPDSDITADFPPGLGGSSAITGEGSTVQLYTGIDFTGISEIMPVNTKRNFVVAFGNEFKSVSPTGGG
**Q.** With B3 as the molecule, how does the EC50 (HIV-1RF) read?
**A.** 0.114 nM

**Q.** And the CC50 (CEM-SS cells)?
**A.** > 199 nM

**Q.** What about the CC50 (Macrophage) of the same molecule?
**A.** 4.62 nM

**Q.** And the EC50 (HIV-1ROJO)?
**A.** 1.55 nM and 1.5 nM

**Q.** What about the CC50 (PBMC) of the same molecule?
**A.** 155 nM

**Q.** What about the “Inhibition of viral attachment to the cell” value (HIV-1IIIB [3]) of the same molecule?
**A.** not attachment

**Q.** And the EC50 (HIV-1IIIB [3]; read-out: Inhibition of Attachment EC50)?
**A.** > 55.7 nM

**Q.** What about the “Inhibition of viral fusion” value (HIV-1IIIB [4]) of the same molecule?
**A.** inhibit HIV viral fusion

**Q.** What about the EC50 (HIV-1IIIB [4]; read-out: Inhibition of Fusion EC50) of the same molecule?
**A.** 2.06 nM

**Q.** And the CC50 ([5]; attachment assay, read-out: Inhibition of Attachment CC50)?
**A.** > 55.7 nM

**Q.** And the CC50 ([5]; fusion assay, read-out: Inhibition of Fusion CC50)?
**A.** > 55.7 nM

**Q.** What about the EC50 (HIV-1US/92/727) of the same molecule?
**A.** 0.0160 µg/mL

**Q.** What about the TC50 (human PBMCs) of the same molecule?
**A.** >0.5 µg/mL
